Patent US20210246166A1 (Bayer, published 2021)
Numbered stars: 1 amine (or outer) side, 2 acyl side, 3 side chain; on linkers, the order of the positions; unused ones are H or OH. Bridge positions count the residues as written; N and C are the ends. Square brackets hold non-standard residues; d marks the D form. Ends that are not written are not given here. (S)‑3‑(2H-tetrazol-5-yl)propanoic acid = (S)-3-(2H-tetrazol-5-yl)propanoic acid; Phe(2,5-diF) = O=C([C@H](Cc1cc(F)ccc1F)N[*:1])[*:2]; PEG9 = NCCOCCOCCOCCOCCOCCOCCOCCOCCOCCC(=O)O; Pro(4-spirocPr) = O=C(O)[C@@H]1CC2(CC2)CN1; Oic = O=C(O)[C@@H]1C[C@@H]2CCCC[C@@H]2N1; tBuAla = CC(C)(C)C[C@H](N)C(=O)O; Pen = CC(C)(S)[C@H](N)C(=O)O; NMeC = CN[C@@H](CS)C(=O)O; PEG3 = NCCOCCOCCOCCC(=O)O; NMeA = CN[C@@H](C)C(=O)O; Sar = CNCC(=O)O

T1: recombinant human MASP1 active protease (amino acids 297-699, C-terminal His Tag) (human, UniProt P48740 297-699)
T1 sequence: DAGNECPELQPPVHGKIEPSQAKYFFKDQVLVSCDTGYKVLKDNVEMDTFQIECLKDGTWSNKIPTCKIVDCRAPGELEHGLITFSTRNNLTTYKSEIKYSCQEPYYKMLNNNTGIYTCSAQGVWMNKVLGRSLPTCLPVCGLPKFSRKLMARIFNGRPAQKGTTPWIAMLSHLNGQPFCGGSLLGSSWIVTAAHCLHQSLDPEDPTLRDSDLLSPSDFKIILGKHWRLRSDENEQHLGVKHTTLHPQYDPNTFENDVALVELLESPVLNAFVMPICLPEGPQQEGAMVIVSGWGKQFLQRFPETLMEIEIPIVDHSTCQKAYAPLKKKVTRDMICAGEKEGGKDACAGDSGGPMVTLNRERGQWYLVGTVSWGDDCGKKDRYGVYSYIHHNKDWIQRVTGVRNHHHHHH

T2: Recombinant human MASP1 enzyme (fragment corresponding to amino acids 297-699, C-terminal His Tag) (human, UniProt P48740 297-699)
T2 sequence: T1 sequence

B1: AIC+SRS-((tBu)A)-P-((6S)-5-Azaspiro[2.4]heptane-6-carboxylic acid)-I-((N-Me)C)+IPD-NH2 (peptide)
peptide: AICSRS[tBuAla]P[Pro(4-spirocPr)]I[NMeC]IPD-NH2
modifications: disulfide 3-11; N-terminus assumed
SMILES: CC[C@H](C)[C@H](NC(=O)[C@H](C)N)C(=O)N[C@H]1CSSC[C@@H](C(=O)N[C@H](C(=O)N2CCC[C@H]2C(=O)N[C@@H](CC(=O)O)C(N)=O)[C@@H](C)CC)N(C)C(=O)[C@H]([C@@H](C)CC)NC(=O)[C@@H]2CC3(CC3)CN2C(=O)[C@@H]2CCCN2C(=O)[C@H](CC(C)(C)C)NC(=O)[C@H](CO)NC(=O)[C@H](CCCNC(=N)N)NC(=O)[C@H](CO)NC1=O
B2: AIC+SRS-((tBu)A)-P-((6S)-5-Azaspiro[2.4]heptane-6-carboxylic acid)-I-(Pen)+IPD-NH2 (peptide)
peptide: AICSRS[tBuAla]P[Pro(4-spirocPr)]I[Pen]IPD-NH2
modifications: disulfide 3-11; N-terminus assumed
SMILES: CC[C@H](C)[C@H](NC(=O)[C@H](C)N)C(=O)N[C@H]1CSSC(C)(C)[C@@H](C(=O)N[C@H](C(=O)N2CCC[C@H]2C(=O)N[C@@H](CC(=O)O)C(N)=O)[C@@H](C)CC)NC(=O)[C@H]([C@@H](C)CC)NC(=O)[C@@H]2CC3(CC3)CN2C(=O)[C@@H]2CCCN2C(=O)[C@H](CC(C)(C)C)NC(=O)[C@H](CO)NC(=O)[C@H](CCCNC(=N)N)NC(=O)[C@H](CO)NC1=O
B3: ((N-Me)A)-IC+SRS-((tBu)A)-P-(Oic)-I-(Pen)+I-NH2 (peptide)
peptide: [NMeA]ICSRS[tBuAla]P[Oic]I[Pen]I-NH2
modifications: disulfide 3-11; N-terminus assumed
SMILES: CC[C@H](C)[C@H](NC(=O)[C@H]1NC(=O)[C@H]([C@@H](C)CC)NC(=O)[C@@H]2C[C@@H]3CCCC[C@@H]3N2C(=O)[C@@H]2CCCN2C(=O)[C@H](CC(C)(C)C)NC(=O)[C@H](CO)NC(=O)[C@H](CCCNC(=N)N)NC(=O)[C@H](CO)NC(=O)[C@@H](NC(=O)[C@@H](NC(=O)[C@H](C)NC)[C@@H](C)CC)CSSC1(C)C)C(N)=O
B4: ((N-Me)G)-IC+SRS-((2,5-Difluoro)F)-PPI-(Pen)+IPD-OH (peptide)
peptide: [Sar]ICSRS[Phe(2,5-diF)]PPI[Pen]IPD-OH
modifications: disulfide 3-11; N-terminus assumed
SMILES: CC[C@H](C)[C@H](NC(=O)CNC)C(=O)N[C@H]1CSSC(C)(C)[C@@H](C(=O)N[C@H](C(=O)N2CCC[C@H]2C(=O)N[C@@H](CC(=O)O)C(=O)O)[C@@H](C)CC)NC(=O)[C@H]([C@@H](C)CC)NC(=O)[C@@H]2CCCN2C(=O)[C@@H]2CCCN2C(=O)[C@H](Cc2cc(F)ccc2F)NC(=O)[C@H](CO)NC(=O)[C@H](CCCNC(=N)N)NC(=O)[C@H](CO)NC1=O
B5: ((N-Me)G)-IC+SRS-((tBu)A)-PPI-(Pen)+IP-(PEG2(13 atoms))-OH (peptide)
peptide: [Sar]ICSRS[tBuAla]PPI[Pen]IP[PEG3]-OH
modifications: disulfide 3-11; N-terminus assumed
SMILES: CC[C@H](C)[C@H](NC(=O)CNC)C(=O)N[C@H]1CSSC(C)(C)[C@@H](C(=O)N[C@H](C(=O)N2CCC[C@H]2C(=O)NCCOCCOCCOCCC(=O)O)[C@@H](C)CC)NC(=O)[C@H]([C@@H](C)CC)NC(=O)[C@@H]2CCCN2C(=O)[C@@H]2CCCN2C(=O)[C@H](CC(C)(C)C)NC(=O)[C@H](CO)NC(=O)[C@H](CCCNC(=N)N)NC(=O)[C@H](CO)NC1=O

molecular target: T1, recombinant human MASP1 active protease …; test: cell-based or functional assay

human MASP1 IC50 [nM] | Binder
1.8 | B1
1.83 | B2
1.8 | B3
1.8 | [Sar]ICSRS[tBuAla]PPI[Pen]IP[(S)‑3‑(2H-tetrazol-5-yl)propanoic acid]-NH2 (disulfide 3-11) [((N-Me)G)-IC+SRS-((tBu)A)-PPI-(Pen)+IP-((S)-3-(2H-tetrazol-5-yl)propanoic acid)-NH2]
1.8 | [Sar]ICSRS[tBuAla]PPI[Pen]IP-{PEG9-NH2} (disulfide 3-11) [((N-Me)G)-IC+SRS-((tBu)A)-PPI-(Pen)+IP-(PEG9(31 atoms))-NH2]

molecular target: T2, Recombinant human MASP1 enzyme …; test: cell-based or functional assay

human MASP1 IC50 [nM] | Binder
18 | B4
70 | {(2S)‑2‑(morpholin-4-yl)propanoic acid}-ICSRSLP[Oic]I[Pen]IPD-OH (disulfide 2-10) [((2S)-2-(morpholin-4-yl)propanoic acid)-IC+SRSLP-(Oic)-I-(Pen)+IPD-OH]
65 | [Sar]ICSRS[(2S)‑2‑Amino‑5‑methyl‑hexanoic acid]PPI[Pen]IPD-OH (disulfide 3-11) [((N-Me)G)-IC+SRS-((2S)-2-Amino-5-methyl-hexanoic acid)-PPI-(Pen)+IPD-OH]
5.3 | B5

molecular target: Recombinant human MASP2 enzyme (fragment corresponding to amino acids 297-686, C-terminal His Tag) (human, UniProt O00187 297-686); test: cell-based or functional assay
Sequence (O00187 other isoform, or with tags, fused parts or gaps limits assumed): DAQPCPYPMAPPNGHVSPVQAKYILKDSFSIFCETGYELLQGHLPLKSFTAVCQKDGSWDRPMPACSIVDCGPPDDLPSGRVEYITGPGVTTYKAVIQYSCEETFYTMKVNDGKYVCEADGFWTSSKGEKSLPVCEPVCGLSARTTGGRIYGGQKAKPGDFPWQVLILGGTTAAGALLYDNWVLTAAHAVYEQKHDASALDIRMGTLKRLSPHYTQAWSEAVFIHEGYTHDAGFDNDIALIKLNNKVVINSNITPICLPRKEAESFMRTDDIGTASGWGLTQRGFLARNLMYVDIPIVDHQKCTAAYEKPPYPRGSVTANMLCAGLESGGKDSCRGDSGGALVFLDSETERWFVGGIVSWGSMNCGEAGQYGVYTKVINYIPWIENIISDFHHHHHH

human MASP2 IC50 [nM] | Binder
170 | {(2S)‑2‑(morpholin-4-yl)propanoic acid}-ICSRSLP[Oic]I[Pen]IPD-OH (disulfide 2-10) [((2S)-2-(morpholin-4-yl)propanoic acid)-IC+SRSLP-(Oic)-I-(Pen)+IPD-OH]
70 | [Sar]ICSRS[(2S)‑2‑Amino‑5‑methyl‑hexanoic acid]PPI[Pen]IPD-OH (disulfide 3-11) [((N-Me)G)-IC+SRS-((2S)-2-Amino-5-methyl-hexanoic acid)-PPI-(Pen)+IPD-OH]
46 | B5

molecular target: recombinant human MASP2 active protease (amino acids 297-686, C-terminal His Tag) (human, UniProt O00187 297-686); test: cell-based or functional assay
Sequence (O00187 other isoform, or with tags, fused parts or gaps limits assumed): as above

human MASP2 IC50 [nM] | Binder
40 | B1
24.5 | B2
76 | B3
36 | [Sar]ICSRS[tBuAla]PPI[Pen]IP[(S)‑3‑(2H-tetrazol-5-yl)propanoic acid]-NH2 (disulfide 3-11) [((N-Me)G)-IC+SRS-((tBu)A)-PPI-(Pen)+IP-((S)-3-(2H-tetrazol-5-yl)propanoic acid)-NH2]
73 | [Sar]ICSRS[tBuAla]PPI[Pen]IP-{PEG9-NH2} (disulfide 3-11) [((N-Me)G)-IC+SRS-((tBu)A)-PPI-(Pen)+IP-(PEG9(31 atoms))-NH2]
